{"source": "the RNAGym collection of RNA variant scans (doi:10.1073/pnas.2313332121)", "parents": {"B1": {"name": "TPR 5TU (parent)", "chain": "GGAUCUUCUCGAUCUAACAAAAAAGACAAAUCUGCCACAAAGCUUGAGAGCAUCUUCGGAUGCAGAGGCGGCAGCCUUCGGUGGCGCGAUAGCGCCAACGUUCUCAACUAUGACACGCAAAACGCGUGCUCCGUUGAAUGGAGUUUAUCAUG"}}, "note": "This sample holds only a part of the variants without activity.", "data": [{"variants_of": "B1", "experiment": "polymerase ribozyme fitness, log enrichment relative to wild type (log ratio); higher = more active; in vitro selection for triplet polymerase activity", "how_it_was_run": "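Libraries of mutants in each subunit of a heterodimeric triplet polymerase ribozyme were generated by PCR and transcribed. In triplicate, each went through one in vitro selection round: annealing with biotinylated primer, partner subunit and triplets; frozen incubation at −7 °C; gel excision of extended constructs; streptavidin-bead capture; RT-PCR. Fitness, taken from Illumina sequencing of input and output libraries, is the logarithm of a genotype's enrichment over wild-type enrichment, averaged across replicates with inverse-variance weights. The logarithm is base 2, and genotypes needed ≥10 input reads and ≥1 read per output to be kept.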", "values": [{"variant": "GGAUCUUCUCGAUCUAACAAAAAAGACAAAUCUGCCACAAAGCUUGAGAGCUUCUUCGGAUGCAGAGGCGGCAGCCUUCGGUGGCGCGAUAGUGCCAACGUUCUCAACUAUGACACGCUAAACUCGUGCUCCGUUGAAUGGAGUUUAUCAUG", "note": "[A52U C93U A119U G124U]", "polymerase ribozyme fitness (log ratio)": -3.24}, {"variant": "GGAUCUUCUCGAUCUAACAAAAAAGACAAAUCUGCCACAAAGCUUGAGAGCUUCUUCGGAUGCAGAGGCGGCAACCUUCGGUGGCGAGAUAGCGCCAACGUUCUCAACUAUGACACGCUAAACGCGUGCUCCGUUGAAUGGAGUUUAGCAUG", "note": "[A52U G74A C87A A119U U148G]", "polymerase ribozyme fitness (log ratio)": "≤ -4.2"}, {"variant": "GGAUCUUCUCGAUCUAACAAAAAAGACAAAUCUGCCACAAAGCUUGAGAGCUUCUUCGGAUGCAGAGGCGGCAGCCUUCGGUAGCGCGACAGCGCCAACGUUCUCUACUAUGACACGCAAAACGCGAGCUCCGUUGAAUGGAGUUUAUCAUG", "note": "[A52U G83A U90C A106U U127A]", "polymerase ribozyme fitness (log ratio)": "≤ -4.2"}, {"variant": "GGAUCUUCUCGAUCUAACAAAAAAGACAAAUCUGCCACAAAGCUUGAGAGCUUCUUCGGAUGCAGAUGCGGCAGCCUUCGGUGGAGCGAUAGCGCCAACGUUCUCAACUAUGACACGCAAAACGGGUGCUCCGUUGAAUGGAGUUUAUCAUG", "note": "[A52U G67U C85A C125G]", "polymerase ribozyme fitness (log ratio)": "≤ -4.2"}, {"variant": "GGAUCUUCUCGAUCUAACAAAAAAGACAAAUCUGCCACAAAGCUUGAGAGCUUCUUUGGAUGCAGAGGCGGCAGCCUUCGGUCGCGCGAUAGCGCCAACGUUCUCAACUAUGACACGCAAAACGCGUGCUCCGUUGAAUGGAGUUUAUCAUG", "note": "[A52U C57U G83C]", "polymerase ribozyme fitness (log ratio)": -3.29}, {"variant": "GGAUCUUCUCGAUCUAACAAAAAAGACAAAUCUGCCACAAAGCUUGAGAGCUUCUUCGGAUGCAGAGGCGGCAGCCUUCGGUGGCGCGAUAGCGCCAACGUUCUCAACUAUGACAAGCAAAACGCGUGCUCCGUUGAAUGGAGUUUAUCAUG", "note": "[A52U C116A]", "polymerase ribozyme fitness (log ratio)": 0.243}, {"variant": "GGAUCUUCUCGAUCUAACAAAAAAGACAAAUCUGCCACAAAGCUUGAGAGCUUCUUCGCAUGCAGAGGCGGCAGCCUUCGGUGGCGCGAUUGCGCCAACGUUCUCAACUAUGACACGCAAAACGCGUGCUCCGUUGAAUGGAGUUUAUCAUG", "note": "[A52U G59C A91U]", "polymerase ribozyme fitness (log ratio)": "≤ -4.2"}, {"variant": "GGAUCUUCUCGAUCUAACAAAAAAGACAAAUCUGCCACAAAGCUUGAGAGCUUUUUCGGAUGCAGAGGCGGCAGCCUUCGGUGGCGCGAUAACGCCAGCGUUCUCAACUAUGACACGCAGAACGCGUGCUCCGUUGAACGGAGCUUAUCAAG", "note": "[A52U C54U G92A A98G A120G U139C U144C U151A]", "polymerase ribozyme fitness (log ratio)": "≤ -4.2"}, {"variant": "GGAUCUUCUCGAUCUAACAAAAAAGACAAAUCUGCCACAAAGCUUGAGAGCUUCUUCGGAUGCAGAGGCGGCUGCCUUCGGUGGCGCGAUAUCGCCAACGUUCUCAACUAUGACACGCAAAACGCGUGCUCCGUUGAAUGGAGUUUAUCAUG", "note": "[A52U A73U G92U]", "polymerase ribozyme fitness (log ratio)": -3.66}, {"variant": "GGAUCUUCUCGAUCUAACAAAAAAGACAAAUCUGCCACAAAGCUUGAGAGCUUGUUCGGAUGCAGAGGCGGCAGCCUUCGGUGGCGCGAUAGCGCCAACGUUCUCAACUAUGACACGCAAAACGCGUGCUCCGUUGAAUGGAGUUUAUCAUG", "note": "[A52U C54G]", "polymerase ribozyme fitness (log ratio)": -2.21}, {"variant": "GGAUCUUCUCGAUCUAACAAAAAAGACAAAUCUGCCACAAAGCUUGAGAGCUUUUUCGGAUGCAGAGGCGGCAGCCUUCGGUGGCGCGAUAGCGCCAACGUUCUCAACUAUGACACGCAAAACGCGUGCUCCGUUGAAUGGAGUUUAUCAUG", "note": "[A52U C54U]", "polymerase ribozyme fitness (log ratio)": -1.2}, {"variant": "GGAUCUUCUCGAUCUAACAAAAAAGACAAAUCUGCCACAAAGCUUGAGAGCUUUUUCGGAUGCAGAGGCGGCAGCCUUCGGUGGCGCGAUAGCGCCUACGUUCUCAACUAUGACACGCAAAACGCGUGCUCCGUUGAAUGGAGUUUAUCAUG", "note": "[A52U C54U A97U]", "polymerase ribozyme fitness (log ratio)": -2.56}, {"variant": "GGAUCUUCUCGAUCUAACAAAAAAGACAAAUCUGCCACAAAGCUUGAGAGCUUCUUCGGAUGCAGAGGCGGCAGUCUUCGGUGGCGCGAUAGCGCCAACGUUCUCAACUAUGACACGCAAAACGCGUGCUCCGUUGAAUGGAGUUUUUCAUG", "note": "[A52U C75U A147U]", "polymerase ribozyme fitness (log ratio)": -2.82}, {"variant": "GGAUCUUCUCGAUCUAACAAAAAAGACAAAUCUGCCACAAAGCUUGAGAGCUUCUUCGGAUGCAGAGGUGGCAGCCUUCGGUCGCGCGAUAGCGCCAACGUUCUCAACUAUGACAGGCAAAACGCGUGCUCCGUUGAAUGGAGUUUAUCAUG", "note": "[A52U C69U G83C C116G]", "polymerase ribozyme fitness (log ratio)": -4.13}, {"variant": "GGAUCUUCUCGAUCUAACAAAAAAGACAAAUCUGCCACAAAGCUUGAGAGCUUCUUCGGAUGCAGAGGCGGCAGCCUUCGGUAGCGCGAUAGCGCCAACGUUCUCAACUAUGACACGUAACACGCGUGCUCCGUUGAAUGGAGUUUAUCAUG", "note": "[A52U G83A C118U A121C]", "polymerase ribozyme fitness (log ratio)": -2.33}, {"variant": "GGAUCUUCUCGAUCUAACAAAAAAGACAAAUCUGCCACAAAGCUUGAGAGCUUCUUCGGAUGCAGAGGCGGCAGCCUUCGGUGGCGCGAUAGAGCCAACGUUCUCAACUAUGACACGCAAAACGCGUGCUCCGUUGAAGGGAGUUUAUCAUG", "note": "[A52U C93A U139G]", "polymerase ribozyme fitness (log ratio)": "≤ -4.2"}, {"variant": "GGAUCUUCUCGAUCUAACAAAAAAGACAAAUCUGCCACAAAGCUUGAGAGCUUCUUCGGAUGCAGAGGCGGCAGCCUUCGGUGGCGCGAUAGCGCCAACGUUCUCAACUAUGACACGCAAAACGUGUGCUCCGUUGAAUGGAGUUUAUCAUG", "note": "[A52U C125U]", "polymerase ribozyme fitness (log ratio)": -1.42}, {"variant": "GGAUCUUCUCGAUCUAACAAAAAAGACAAAUCUGCCACAAAGCUUGAGAGCUUCUUCGGAUGCAGAGGCGGCAGCCUUCGGUAGCGCGAUAGCGCCAACGUUCUCAACUAUGACACGCAAAACGCGUGCUCCGUUGAAUGGAGUUUAUCAUG", "note": "[A52U G83A]", "polymerase ribozyme fitness (log ratio)": -2.83}, {"variant": "GGAUCUUCUCGAUCUAACAAAAAAGACAAAUCUGCCACAAAGCUUGAGAGCUUCUUCGGAUGCAGAGGCGGCAGCCUUCAGUGGCGCGAUAGCGCCAACGUUCUCAACUAUGACACGCAAAACGCGUGCUCCGUUGAAUGGAGUUUAUCAUG", "note": "[A52U G80A]", "polymerase ribozyme fitness (log ratio)": -3.35}]}]}
